# In patent publication US11191823 (CHILDREN S MEDICAL CENTER, dated 2021):
# Several values for one entry are separate records, joined by “and”; a condition that tells them apart may be missing. Equal entries are not always repeated.
# B1: CR1-07 IgG (antibody, V domains shown)
# VH: QVQLVESGGGVVHPGRSLRLSCAASGFTFGTSIMHWVRQAPGKGMQWVAQISHDESRKFYSDSVKGRFTVSRDNSKNTLFLEMSSLRIEDTAVYYCAKDLSPPYSYAWDIFQYWGQGSLVTVS
# VL: DIVMTQSPESLAVSLGERATINCKSSQSVLYSSRSDNKDYLAWYQQKPGQSPKLLIYWASTRESGVPERFTGSGSGTDFTLSISSLQAEDVAVYYCQQYYSSPPTFGGGTKVELK
# B2: CR1-07 Fab (Fab, V domains shown)
# VH: QVQLVESGGGVVHPGRSLRLSCAASGFTFGTSIMHWVRQAPGKGMQWVAQISHDESRKFYSDSVKGRFTVSRDNSKNTLFLEMSSLRIEDTAVYYCAKDLSPPYSYAWDIFQYWGQGSLVTVS
# VL: DIVMTQSPESLAVSLGERATINCKSSQSVLYSSRSDNKDYLAWYQQKPGQSPKLLIYWASTRESGVPERFTGSGSGTDFTLSISSLQAEDVAVYYCQQYYSSPPTFGGGTKVELK
# B3: CR1-28 IgG (antibody, V domains shown)
# VH: QVQLVESGGGVVQPGRSLRLSCAASGFTFSSSAMHWVRQAPGKGLEWVAVIWSDGSNENYADSVKGRFTISRDNSKNTLYLQMSSLRAEDTAVYYCATDKTYVSGYTSTWYYFNYWGQGTLVTVS
# VL: DIQMTQSPSTLSASVGDRVTITCRASQSIDNWLAWYQQKPGKAPKLLIYTASRLESGVPSRFSGSGSGTEFTLTISSLQPDDFATYYCQHRTFGQGTKVEIK
# B4: CR1-28 Fab (Fab, V domains shown)
# VH: QVQLVESGGGVVQPGRSLRLSCAASGFTFSSSAMHWVRQAPGKGLEWVAVIWSDGSNENYADSVKGRFTISRDNSKNTLYLQMSSLRAEDTAVYYCATDKTYVSGYTSTWYYFNYWGQGTLVTVS
# VL: DIQMTQSPSTLSASVGDRVTITCRASQSIDNWLAWYQQKPGKAPKLLIYTASRLESGVPSRFSGSGSGTEFTLTISSLQPDDFATYYCQHRTFGQGTKVEIK
# B5: GD01 IgG (antibody, V domains shown)
# VH: EVKLQQSGAELARPGTSVKLSCKASGYTFTNYWMQWIKQRPGQGLEWIGAVYPGDGDTRFSQKFKGKATLTADKSSSTAYMQLSSLSSEDSAVYFCARRRVYYGSNYIYALDYWGQGTSVTVSA
# VL: DIVMTQSQKFMSTSIGDRVSITCKASQNVGSAVAWYQQKPGQSPKLLIYSASNRYTGVPDRFIGSESGTDFTLTISNMQSEDLADYFCQQYSSYPLAFGAGTKLELK
# Columns and labels:
# [1] = molecular target: T1, JUNV GP1 (residues 87-235), biotinylated (Junin virus (JUNV), UniProt P26313 87-235); assay: ELISA, plates coated with biotinylated antigen, IgG titrated
# [2] = molecular target: T1, JUNV GP1 (residues 87-235), biotinylated; assay: SPR, Fab over immobilized JUNV GP1
# [3] = molecular target: T1, JUNV GP1 (residues 87-235), biotinylated
# [4] = molecular target: T1, JUNV GP1 (residues 87-235), biotinylated; assay: ELISA, plates coated with antigen, IgG titrated
Binder,EC50 (read off the curve) [1],Kd [2],also measured
B1,~0.2 µg/mL,–,–
B2,–,86.2 nM,–
B3,~0.1 µg/mL,–,–
B4,–,5.3 nM,–
B5,–,–,IC50 (read off the curve) [3]: ~8 µg/mL and ~7 µg/mL and ~10 µg/mL; EC50 (read off the curve) [4]: ~0.1 µg/mL
